According to patent publication US20230365705A1 (DYNAMICURE BIOTECHNOLOGY, published 2023):

T1: Human CD93 on cells (human CD93 expressing CHO cells; HUVEC, U937 and KG1a cells) (human, UniProt Q9NPY3 22-652)
T1 construct: whole, on cells; also called hCD93 expressing CHO cells; hCD93 CHO cells
T1 sequence (looked up): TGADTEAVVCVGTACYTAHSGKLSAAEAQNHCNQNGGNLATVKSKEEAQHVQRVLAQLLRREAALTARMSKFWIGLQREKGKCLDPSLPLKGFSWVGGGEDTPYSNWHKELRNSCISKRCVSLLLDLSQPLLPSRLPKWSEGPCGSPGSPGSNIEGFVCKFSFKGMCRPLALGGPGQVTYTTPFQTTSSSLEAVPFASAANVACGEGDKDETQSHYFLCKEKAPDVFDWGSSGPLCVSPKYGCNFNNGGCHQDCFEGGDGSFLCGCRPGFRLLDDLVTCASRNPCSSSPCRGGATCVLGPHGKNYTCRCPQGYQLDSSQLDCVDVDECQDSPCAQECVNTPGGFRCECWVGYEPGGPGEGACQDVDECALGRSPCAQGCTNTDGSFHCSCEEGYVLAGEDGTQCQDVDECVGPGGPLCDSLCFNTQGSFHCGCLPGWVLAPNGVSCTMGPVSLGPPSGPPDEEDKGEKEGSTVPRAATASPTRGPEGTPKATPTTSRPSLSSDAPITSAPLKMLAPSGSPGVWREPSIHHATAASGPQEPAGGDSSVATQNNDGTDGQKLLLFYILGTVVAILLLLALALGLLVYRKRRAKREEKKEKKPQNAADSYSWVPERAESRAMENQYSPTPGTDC

T2: cynomolgus CD93 protein (made in-house) (cynomolgus, UniProt A0A2K5VH53 22-580)
T2 construct: Biotinylated in BLI; also called cyno CD93; cynoCD93
T2 sequence: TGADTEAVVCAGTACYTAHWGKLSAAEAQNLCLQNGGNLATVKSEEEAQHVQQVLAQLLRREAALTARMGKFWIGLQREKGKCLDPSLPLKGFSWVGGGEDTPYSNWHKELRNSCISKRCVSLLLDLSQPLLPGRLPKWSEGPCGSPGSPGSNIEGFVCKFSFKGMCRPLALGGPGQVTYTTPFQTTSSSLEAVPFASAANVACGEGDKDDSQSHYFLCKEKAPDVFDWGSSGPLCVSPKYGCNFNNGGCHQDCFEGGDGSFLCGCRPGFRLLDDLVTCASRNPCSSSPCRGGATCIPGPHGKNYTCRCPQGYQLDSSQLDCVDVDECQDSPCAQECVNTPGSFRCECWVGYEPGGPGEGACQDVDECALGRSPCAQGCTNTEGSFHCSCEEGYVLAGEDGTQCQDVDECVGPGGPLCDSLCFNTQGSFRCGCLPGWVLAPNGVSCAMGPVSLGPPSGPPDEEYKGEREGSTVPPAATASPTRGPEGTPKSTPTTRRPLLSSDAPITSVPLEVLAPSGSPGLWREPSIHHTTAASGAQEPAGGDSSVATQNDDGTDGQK

T3: Mouse CD93 on cells (mouse CD93 expressing CHO cells; mouse CD93 expressing HEK cells) (mouse, UniProt O89103 23-644)
T3 construct: whole, on cells; also called mCD93 HEK; CD93-HEK cells
T3 sequence (looked up): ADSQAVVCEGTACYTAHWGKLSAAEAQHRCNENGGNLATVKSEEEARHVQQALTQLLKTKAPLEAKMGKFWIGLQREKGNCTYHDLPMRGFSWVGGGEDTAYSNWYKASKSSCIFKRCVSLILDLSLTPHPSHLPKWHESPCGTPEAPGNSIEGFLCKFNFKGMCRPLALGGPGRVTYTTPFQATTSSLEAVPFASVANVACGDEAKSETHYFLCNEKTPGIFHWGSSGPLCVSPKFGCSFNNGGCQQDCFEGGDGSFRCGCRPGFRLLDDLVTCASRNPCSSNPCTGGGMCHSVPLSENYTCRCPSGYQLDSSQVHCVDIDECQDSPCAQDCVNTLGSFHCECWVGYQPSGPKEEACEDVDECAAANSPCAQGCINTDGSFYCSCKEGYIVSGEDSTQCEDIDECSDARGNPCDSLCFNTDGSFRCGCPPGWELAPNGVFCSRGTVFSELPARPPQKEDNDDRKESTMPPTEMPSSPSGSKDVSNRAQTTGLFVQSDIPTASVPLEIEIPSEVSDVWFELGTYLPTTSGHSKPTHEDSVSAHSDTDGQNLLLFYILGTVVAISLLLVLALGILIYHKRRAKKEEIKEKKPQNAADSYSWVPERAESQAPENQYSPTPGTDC

B1: h16E4 (humanized 16E4, VH4+VL6) (antibody, V domains shown)
VH: QVQLVQSGAEVKKPGASVKVSCKASGYTFTSYWMHWVRQAPGQGLEWMGEIDPSASYTYYNQKFKGRVTMTRDKSSSTVYMELSSLTSEDSAVYYCARSVYYGNKYFDVWGAGTTVTVSS
VL: DIQMTQSPSTLSASVGDRVTITCKASQSVDYAGDSYMNWYQQKPGKAPKLLIYAASNLESGVPSRFSGSGSGTEFTLTISSLQPDDFATYYCQQTNEDPRTFGGGTKLEIK
notes: Detected with anti-human IgG, so a human Fc
B2: 16E4 (hybridoma) (antibody, IgG2a, V domains shown)
VH: QVQLQQPGAELVKPGASVKLSCKASGYTFTSYWMHWVKQRPGQGLEWIGEIDPSASYTYYNQKFKGKATLTVDKSSSTAYMQLSSLTSEDSAVYYCARSVYYGNKYFDVWGAGTTVTVSS
VL: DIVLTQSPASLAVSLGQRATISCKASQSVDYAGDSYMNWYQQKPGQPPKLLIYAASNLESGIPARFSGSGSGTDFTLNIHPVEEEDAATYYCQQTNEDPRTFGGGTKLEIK
notes: also called 16E4 mAb; 16E4 mIgG2a

What was measured:
[1] = molecular target: T1, Human CD93 on cells (human CD93 …); test: flow cytometry titration, CHO-hCD93 cells
Protocol: Human CD93 expressing CHO cells were detached by incubation with TrypLE reagents (Thermo Fisher), which preserves the integrity of CD93 on the cell surface. Then the cells were incubated with serial diluted anti-CD93 antibodies for 30 minutes at 4° C. After washing by FACS buffer, the cells were incubated with Alexa Fluor 647 conjugated anti-human IgG (Jackson ImmunoResearch) for 30 minutes in 4° C. After washing by FACS buffer twice, the samples were acquired in NovoCyte Flow Cytometer and analyzed by NovoExpress software.

[2] = molecular target: T1, Human CD93 on cells (human CD93 …); test: flow cytometry blocking assay, CHO-hCD93 cells, antibody 50 ug/ml then MMRN2 0.1 ug/ml, APC-A
Protocol: After incubation, the cells were washed with FACS buffer and incubated with anti-His conjugated APC or streptavidin conjugated APC at a ratio of 1:500 for 30 minutes at 4° C. After washing with FACS buffer twice, the samples were analyzed and data acquired in NovoCyte Flow.

[3] = molecular target: T2, cynomolgus CD93 protein (made in-house); test: BLI (Octet QKe), biotinylated CD93 on streptavidin biosensors; table under the cynoCD93 panels
Protocol: The binding affinity of anti-CD93 antibodies were determined with bio-layer interferometry using Octet QKe (Fortebio). Human CD93 recombinant protein (Sino Biological Inc, Catalog #12589-H08H) or cynomolgus CD93 protein (made in-house) were biotinylated using EZ-LINK NHS-PEG4 biotin (Thermo Fisher Scientific). Streptavidin biosensors (Fortebio) were used to load biotinylated CD93 protein (300 seconds at 5 μg/ml). The baseline was stabilized for 60 seconds in a 1× kinetics buffer (Fortebio) before serially diluted anti-CD93 antibodies were allowed to associate for 300 seconds with captured protein. The sensors were dissociated in a 1× kinetics buffer for 600 seconds.

[4] = molecular target: T3, Mouse CD93 on cells (mouse CD93 …); test: summary table; method and form of mouse CD93 not given

Binder | EC50 [1] | M3 gate, % of cells positive for MMRN2 after the antibody [2] | Kd [3] | kon [3] | binding result [4]
B1 | 0.388 nM |  |  |  | 
B2 |  | 37.7% | 0.446 nM | 663000 M⁻¹ s⁻¹ | no binding
